{"source": "paper PMC8428401", "target": "AAVhum.8 capsid (adeno-associated virus 8 (nonhuman primate isolate)) (UniProt Q8JQF8)", "assay": "cryo-EM structure; purified AAVhum.8 vectors vitrified on Quantifoil grids; Titan Krios 300 kV; capsid reconstructed in cisTEM; 60-mer VP3 model refined against the map"}
{"substance": "AAVhum.8 capsid (from UniProt Q8JQF8 218-738) (complex)", "values": [{"measurement": "stoichiometry N", "value": 60}]}
